These results are taken from article PMC12520364, “UBXN7 facilitates SARS-CoV-2 replication via inhibiting the K48-linked ubiquitination of viral N protein” (PLOS Pathogens, 2025).

Assay [1] has as its target T1, Purified recombinant His-N protein from E. coli (SARS-CoV-2, UniProt P0DTC9 1-419).
T1 construct: SARS-CoV-2 N protein, full-length N gene of NC_045512.2 in pET-28a(+); also called prokaryotic recombinant SARS-CoV-2 N protein; not shown: 6xHis, N-terminal, kept
The assay can be described thus: pull-down. As to conditions: both partners purified.

Assay [2] deals with T2, Fc-tagged SARS-CoV-2 N protein (SARS-CoV-2, UniProt P0DTC9 1-419).
T2 construct: also called N-Fc; SARS-CoV-2 N-Fc
Kind of assay: pull-down. To be noted: both partners purified.

B1: purified HA-UBXN7 (natural protein, UniProt O94888 1-489, looked up)
chain: MAAHGGSAASSALKGLIQQFTTITGASESVGKHMLEACNNNLEMAVTMFLDGGGIAEEPSTSSASVSTVRPHTEEEVRAPIPQKQEILVEPEPLFGAPKRRRPARSIFDGFRDFQTETIRQEQELRNGGAIDKKLTTLADLFRPPIDLMHKGSFETAKECGQMQNKWLMINIQNVQDFACQCLNRDVWSNEAVKNIIREHFIFWQVYHDSEEGQRYIQFYKLGDFPYVSILDPRTGQKLVEWHQLDVSSFLDQVTGFLGEHGQLDGLSSSPPKKCARSESLIDASEDSQLEAAIRASLQETHFDSTQTKQDSRSDEESESELFSGSEEFISVCGSDEEEEVENLAKSRKSPHKDLGHRKEENRRPLTEPPVRTDPGTATNHQGLPAVDSEILEMPPEKADGVVEGIDVNGPKAQLMLRYPDGKREQITLPEQAKLLALVKHVQSKGYPNERFELLTNFPRRKLSHLDYDITLQEAGLCPQETVFVQERN
notes: May be the same construct as m1 (pCAGGS-HA); source: purified
Regarding B1, the binding result in assay [1] is “binds”.

B2: Purified recombinant UBXN7-his protein (natural protein, UniProt O94888 1-489, looked up)
chain: MAAHGGSAASSALKGLIQQFTTITGASESVGKHMLEACNNNLEMAVTMFLDGGGIAEEPSTSSASVSTVRPHTEEEVRAPIPQKQEILVEPEPLFGAPKRRRPARSIFDGFRDFQTETIRQEQELRNGGAIDKKLTTLADLFRPPIDLMHKGSFETAKECGQMQNKWLMINIQNVQDFACQCLNRDVWSNEAVKNIIREHFIFWQVYHDSEEGQRYIQFYKLGDFPYVSILDPRTGQKLVEWHQLDVSSFLDQVTGFLGEHGQLDGLSSSPPKKCARSESLIDASEDSQLEAAIRASLQETHFDSTQTKQDSRSDEESESELFSGSEEFISVCGSDEEEEVENLAKSRKSPHKDLGHRKEENRRPLTEPPVRTDPGTATNHQGLPAVDSEILEMPPEKADGVVEGIDVNGPKAQLMLRYPDGKREQITLPEQAKLLALVKHVQSKGYPNERFELLTNFPRRKLSHLDYDITLQEAGLCPQETVFVQERN
notes: The host of UBXN7-his is therefore told in two ways; also called His-tagged UBXN7; source: HEK293F, transfected, purified (Ni-NTA, Superdex200)
For the molecule B2, the binding result in assay [2] was “binds”.
